# Source: article PMC9292375, “Structural basis of an epitope tagging system derived from Haloarcula marismortui bacteriorhodopsin I D94N and its monoclonal antibody GD‐26” (The Febs Journal, 2021)
# Values joined by “and” are separate entries in the source; they are usually repeats but may differ in a detail not shown here. Equal entries are not always repeated.
# T1: TD peptide (GTGATPADD), peptide V from the C terminus of HmBRI D94N (Haloarcula marismortui HmBRI C terminus …)
# T1 construct: nine residues at the C terminus of Haloarcula marismortui bacteriorhodopsin I (HmBRI); residue numbers 1-9 count on: the TD peptide; also called TD tag; wild-type TD peptide; source: synthetic peptide
# T1 chain: GTGATPADD
# T2: TD peptide A7S (A7S (stands in the printed letters))
# T2 construct: TD peptide (C terminus of HmBRI) with A7S; numbers count on: the TD peptide; source: synthetic peptide
# T2 chain: GTGATPSDD
# T3: TD peptide A7Y (A7Y (stands in the printed letters))
# T3 construct: TD peptide (C terminus of HmBRI) with A7Y; numbers count on: the TD peptide; source: synthetic peptide
# T3 chain: GTGATPYDD
# T4: TD peptide M1 (Met attached to the N terminus) (Haloarcula marismortui HmBRI C-terminal …)
# T4 construct: TD peptide (C terminus of HmBRI) with one Met attached before Gly1; source: synthetic peptide
# T4 chain: MGTGATPADD
# T5: TD peptide D9N (D9N (stands in the printed letters))
# T5 construct: TD peptide (C terminus of HmBRI) with D9N; numbers count on: the TD peptide; source: synthetic peptide
# T5 chain: GTGATPADN
# T6: TD peptide C1 (Asp9 removed) (Haloarcula marismortui (strain ATCC …))
# T6 construct: TD peptide residues 1-8 (Asp9 removed); numbers count on: the TD peptide; source: synthetic peptide
# T6 chain: GTGATPAD
# T7: TD peptide C2 (Asp8 and Asp9 removed) (Haloarcula marismortui (strain ATCC …))
# T7 construct: TD peptide residues 1-7 (Asp8 and Asp9 removed); numbers count on: the TD peptide; source: synthetic peptide
# T7 chain: GTGATPA
# Assays:
# Assay in all cases: ITC; synthetic peptide in the syringe titrated into GD-26 Fab or GD-26 IgG (10 μM) in the cell; 25 °C; 50 mM Tris, 150 mM NaCl, pH 7.5; one-set-of-sites model
# Conditions in all cases: both partners purified
# [1] = target: T1, TD peptide (GTGATPADD), peptide V from …
# TD peptide A7S = target: T2, TD peptide A7S
# TD peptide A7Y = target: T3, TD peptide A7Y
# [2] = target: T4, TD peptide M1 (Met attached to the N …)
# TD peptide D9N = target: T5, TD peptide D9N
# [3] = target: T6, TD peptide C1 (Asp9 removed)
# [4] = target: T7, TD peptide C2 (Asp8 and Asp9 removed)
binder,measurement,setting,value
"GD-26 Fab (antigen-binding fragment of monoclonal antibody GD-26) (Fab, V domains shown, Fab heavy chain of GD-26; whole chain in PDB 7DOH; light chain of GD-26; the Fab was secreted; source: Expi293F, transient co-transfection, secreted; purified (HisTrap Excel, Superdex 200 gel filtration)) VH: QVQLRQSGPELVKPGASVKMSCRASGYTFTNYNIHWVRQRPGQGLEWIGWIYPVDGTTKYNEKFKDKTTLTSDKSSSTAYMSLSGLTSEDSAIYFCARGLDNWGQGTSVTVSS VL: DVVLTQTPLSLSVTIGQPASISCRSSQRLLYSNGKTYLNWFQQRPGQAPKYLMFQVSKLGPGIPARFSGSGSETDFTLKISRVEAEDLGVYYCFQGTFFPHTFGGGTKLEMK",Kd,[1],19.8 nM and 19.4 nM
same,dH,[1],-13.4 kcal/mol
same,stoichiometry N,[1],0.93 sites
same,Kd,TD peptide A7S,72.7 nM
same,Kd,TD peptide A7Y,73.4 nM
same,Kd,[2],25.1 nM
same,Kd,TD peptide D9N,132 nM
same,Kd,[3],273 nM
same,binding result,[4],no binding
